# The supplement of paper PMC6757056
# ± gives the standard deviation of the averaged measurements.
# B1: library; a variant is named by its letters at N, in order (parent)
# chain: GCUGUCACCGAGAAACUGUGAAGUAUAUCUUAAACCUGGGCACUUAAAAGAUAUAUGGAGUUAGUAGUGCAACCUGCUCGGUCUGAUGAGUCCNNNNNNGGACGAAACAGC
# Key:
# [1] = variants of: B1; test: FACS-Seq fitted mean relative fluorescence mCherry/BFP without ligand (log10 relative fluorescence); HEK293T; ligand: cyclic di-GMP (c-di-GMP-II aptamer); higher = higher reporter protein expression; details: ligand present: no
# Summary of the method: (§1)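 An mCherry reporter containing the ribozyme switch and an EF1α-BFP marker were introduced by lentivirus into HEK293T libraries. Cells were enriched, incubated 48 h with or without ligand, sorted into 6 bins by mCherry/BFP, and bin genomic DNA was PCR-amplified, barcoded and sequenced on MiSeq. Fluorescence represents the normalized fitted normal mean of the bin counts. Fitting was done on log10(mCherry/BFP), scaling to five spiked-in control ribozymes.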
# [2] = variants of: B1; test: normalized RNA/DNA level without ligand (relative to sTRSVctl = 100) (log10 (% of sTRSVctl)); HEK293T; ligand: cyclic di-GMP (c-di-GMP-II aptamer); higher = less ribozyme self-cleavage, higher mRNA level; details: reporter: mCherry (pCS4076), ligand present: no
# Summary of the method: (§2)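 Library plasmids carrying ribozyme switches linked to mCherry, or to eGFP in some ligand experiments, were transfected into HEK293T at 4 µg per 6-well well, with any ligand added 1 h earlier. Seventy-two hours on, total RNA was extracted with EDTA and reverse-transcribed, amplified, barcoded and sequenced. RNA level was RNA over DNA reads normalized to a spiked-in non-cleaving sequence or to the top sequences, then scaled and log-transformed. The top set was 25 sequences, the transform was ×100 and log10, and sequences needed ≥100 DNA reads.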
# [3] = variants of: B1; test: FACS-Seq fitted mean relative fluorescence mCherry/BFP with ligand (log10 relative fluorescence); HEK293T; ligand: cyclic di-GMP (c-di-GMP-II aptamer); ligand concentration (+) FACS-Seq: 1 mM; higher = higher reporter protein expression; details: ligand present: yes
# Summary of the method: as §1
# [4] = variants of: B1; test: normalized RNA/DNA level with ligand (relative to sTRSVctl = 100) (log10 (% of sTRSVctl)); HEK293T; ligand: cyclic di-GMP (c-di-GMP-II aptamer); ligand concentration (+) RNA-Seq: 1 mM; higher = less ribozyme self-cleavage, higher mRNA level; details: reporter: mCherry (pCS4076), ligand present: yes
# Summary of the method: as §2
Variant,FACS-Seq fitted mean (log10) [1],normalized RNA/DNA level without ligand (log10) [2],FACS-Seq fitted mean (log10) [3],normalized RNA/DNA level with ligand (log10) [4]
GCAAAG,-0.5587 ± 0.0035,1.41 ± 0.099,-0.278 ± 0.024,1.62 ± 0.087
CGGCUA,-0.523 ± 0.084,1.33 ± 0.088,-0.355 ± 0.014,1.46 ± 0.18
GUCUUG,-0.245 ± 0.061,1.61 ± 0.052,0.124 ± 0.019,1.77 ± 0.12
CCACUU,-0.246 ± 0.072,1.5 ± 0.069,-0.0246 ± 0.1,1.69 ± 0.078
UCGCGA,-0.247 ± 0.071,1.668 ± 0.0022,0.0917 ± 0.061,1.8 ± 0.1
GCAUUG,-0.56 ± 0.071,1.5 ± 0.13,-0.211 ± 0.025,1.71 ± 0.052
CUGCGG,0.154 ± 0.06,1.82 ± 0.042,0.241 ± 0.03,1.84 ± 0.087
AGGACA,-0.264 ± 0.0046,1.48 ± 0.11,-0.014 ± 0.086,1.63 ± 0.12
UAGACU,-0.164 ± 0.073,1.68 ± 0.051,0.141 ± 0.12,1.85 ± 0.13
UUAAUG,-0.155 ± 0.022,1.6 ± 0.035,0.183 ± 0.0019,1.79 ± 0.071
UUAAGA,-0.227 ± 0.096,1.613 ± 0.01,0.2 ± 0.0086,1.76 ± 0.12
CGUGCG,-0.833 ± 0.015,1.8 ± 0.02,-0.561 ± 0.012,1.83 ± 0.11
AAGACA,-0.415 ± 0.14,1.55 ± 0.044,-0.0423 ± 0.083,1.74 ± 0.1
CCCAGA,-0.192 ± 0.068,1.55 ± 0.021,0.0209 ± 0.061,1.74 ± 0.078
AUAGAC,-0.109 ± 0.028,1.61 ± 0.05,0.0802 ± 0.041,1.76 ± 0.091
GACGAU,-0.37 ± 0.031,1.59 ± 0.021,-0.0677 ± 0.044,1.74 ± 0.14
UUCGGC,-0.553 ± 0.015,1.81 ± 0.029,-0.447 ± 0.062,1.9 ± 0.086
GAUUAA,-0.0108 ± 0.066,1.55 ± 0.057,0.211 ± 0.1,1.74 ± 0.087
CCAUGC,0.318 ± 0.13,1.673 ± 0.0061,0.419 ± 0.012,1.82 ± 0.11
CCCCAC,-0.891 ± 0.018,1.75 ± 0.033,-0.665 ± 0.018,1.88 ± 0.097
UGGUCG,-0.511 ± 0.12,1.77 ± 0.034,-0.326 ± 0.0047,1.89 ± 0.045
AAGGUU,-0.341 ± 0.089,1.59 ± 0.022,-0.152 ± 0.091,1.8 ± 0.1
AAGGUA,-0.681 ± 0.028,1.4 ± 0.091,-0.372 ± 0.038,1.57 ± 0.13
UAGGGU,-0.424 ± 0.015,1.61 ± 0.075,-0.0926 ± 0.068,1.78 ± 0.13

Variant,FACS-Seq fitted mean (log10) [1],normalized RNA/DNA level without ligand (log10) [2],FACS-Seq fitted mean (log10) [3],normalized RNA/DNA level with ligand (log10) [4]
UAGGGA,-0.172 ± 0.12,1.53 ± 0.039,-0.000875 ± 0.13,1.68 ± 0.14
GCCGAU,-0.47 ± 0.078,1.55 ± 0.034,-0.231 ± 0.064,1.74 ± 0.1
CUACAC,-0.167 ± 0.016,1.699 ± 0.0052,0.0624 ± 0.12,1.83 ± 0.11
AAGAAC,-1.03 ± 0.025,1.55 ± 0.029,-0.842 ± 0.066,1.73 ± 0.1
GUUGCG,-0.248 ± 0.029,1.81 ± 0.023,0.0336 ± 0.026,1.88 ± 0.092
ACUAAU,-0.784 ± 0.024,1.47 ± 0.052,-0.433 ± 0.047,1.68 ± 0.11
CGAACA,-0.456 ± 0.075,1.58 ± 0.045,-0.276 ± 0.0035,1.7 ± 0.074
AACCUU,-0.0813 ± 0.093,1.66 ± 0.039,0.232 ± 0.016,1.82 ± 0.11
GUAGCA,0.112 ± 0.04,1.83 ± 0.043,0.201 ± 0.053,1.87 ± 0.13
GAAAAU,-0.15 ± 0.048,1.55 ± 0.048,0.162 ± 0.015,1.74 ± 0.1
ACCCUG,-0.354 ± 0.046,1.67 ± 0.022,0.0314 ± 0.09,1.83 ± 0.097
AUGAAC,-0.0137 ± 0.15,1.649 ± 0.0059,0.334 ± 0.026,1.79 ± 0.1
UGUACU,-0.0524 ± 0.051,1.76 ± 0.05,0.296 ± 0.04,1.87 ± 0.094
CCGGAA,-0.512 ± 0.023,1.28 ± 0.09,-0.209 ± 0.03,1.47 ± 0.12
CCGGAC,-0.253 ± 0.11,1.62 ± 0.034,-0.0326 ± 0.0056,1.75 ± 0.086
CCGGAU,-0.339 ± 0.015,1.55 ± 0.074,-0.0202 ± 0.13,1.76 ± 0.1
GCAUGU,-0.424 ± 0.036,1.49 ± 0.073,-0.147 ± 0.022,1.69 ± 0.072
CACCUU,-0.0716 ± 0.019,1.48 ± 0.076,0.228 ± 0.071,1.67 ± 0.066
GCCAUU,-0.372 ± 0.0056,1.58 ± 0.016,-0.161 ± 0.13,1.78 ± 0.13
GACAUA,-0.45 ± 0.0083,1.52 ± 0.04,-0.156 ± 0.096,1.68 ± 0.064
AACGAG,-0.834 ± 0.078,1.53 ± 0.1,-0.763 ± 0.099,1.71 ± 0.069
CGGCAC,-0.036 ± 0.21,1.64 ± 0.038,0.073 ± 0.042,1.8 ± 0.12
CCGCAC,-0.121 ± 0.13,1.6849 ± 0.0016,0.131 ± 0.16,1.85 ± 0.11
UCUGUA,-0.293 ± 0.01,1.57 ± 0.089,0.0285 ± 0.0098,1.77 ± 0.041

Variant,FACS-Seq fitted mean (log10) [1],normalized RNA/DNA level without ligand (log10) [2],FACS-Seq fitted mean (log10) [3],normalized RNA/DNA level with ligand (log10) [4]
GCGUGA,-0.266 ± 0.05,1.47 ± 0.068,-0.000275 ± 0.097,1.65 ± 0.088
AACAUG,0.0898 ± 0.039,1.54 ± 0.053,0.286 ± 0.039,1.72 ± 0.081
CGUCAA,-0.556 ± 0.083,1.31 ± 0.093,-0.352 ± 0.01,1.49 ± 0.13
AUUAGC,-0.0321 ± 0.09,1.6567 ± 0.0015,0.226 ± 0.11,1.76 ± 0.16
UGUGAU,-0.736 ± 0.12,1.676 ± 0.012,-0.5759 ± 0.0014,1.81 ± 0.13
CCCGAA,-0.464 ± 0.055,1.39 ± 0.023,-0.0882 ± 0.039,1.64 ± 0.13
ACAAGU,-0.519 ± 0.012,1.42 ± 0.039,-0.19187 ± 0.00017,1.63 ± 0.13
UUGCGU,-0.322 ± 0.017,1.69 ± 0.035,-0.00149 ± 0.0032,1.86 ± 0.084
UCCCUG,0.234 ± 0.092,1.776 ± 0.0073,0.44 ± 0.0075,1.89 ± 0.13
UAUAAA,-0.114 ± 0.051,1.66 ± 0.026,0.111 ± 0.097,1.79 ± 0.13
CACUUA,-0.231 ± 0.015,1.43 ± 0.04,-0.0377 ± 0.081,1.59 ± 0.11
AAGGGA,-0.6377 ± 0.005,1.38 ± 0.072,-0.444 ± 0.023,1.5 ± 0.13
AUGCGA,-0.411 ± 0.064,1.49 ± 0.079,-0.0888 ± 0.022,1.66 ± 0.13
ACAGUU,-0.579 ± 0.027,1.32 ± 0.13,-0.312 ± 0.09,1.5 ± 0.073
GCUUAG,-0.473 ± 0.076,1.638 ± 0.0094,-0.165 ± 0.16,1.79 ± 0.069
UCAGCG,-0.403 ± 0.12,1.83 ± 0.077,-0.141 ± 0.05,1.88 ± 0.099
GCUGGU,-0.0949 ± 0.014,1.6 ± 0.057,0.119 ± 0.16,1.76 ± 0.099
CAAUGU,0.349 ± 0.071,1.75 ± 0.019,0.4491 ± 0.001,1.87 ± 0.11
UCGGCU,-0.103 ± 0.0013,1.77 ± 0.036,0.114 ± 0.004,1.88 ± 0.089
UAACGC,-0.0408 ± 0.21,1.66 ± 0.04,0.122 ± 0.082,1.79 ± 0.17
AGUAAU,0.353 ± 0.055,1.7 ± 0.006,0.4462 ± 0.0042,1.83 ± 0.097
AGUAAG,-0.172 ± 0.14,1.53 ± 0.11,0.221 ± 0.032,1.7 ± 0.062
CGAUGA,-0.364 ± 0.049,1.47 ± 0.059,-0.172 ± 0.032,1.62 ± 0.12
UAGUAU,-0.121 ± 0.12,1.61 ± 0.028,0.192 ± 0.1,1.78 ± 0.064
